Test results reported in patent US20120058906A1 (published 2012).
Blank lines part the entries; values can stand above or below the binder they belong to.

What was measured:
[1] = target: T1, rHuman IGF-1 sR (IGF-1 sR), CF (R&D Systems Cat#391-GR) (human, UniProt P08069 31-932); experiment: ECL (MSD multi-spot), antigen spotted on plate; Fab 1000 nM; blank 1742
T1 construct: Bought soluble receptor; also called insulin-like growth factor-1 soluble receptor; IGF-R1

[2] = target: T2, rHuman P-Cadherin/Fc Chimera, CF (R&D Systems Cat#861-PC) (human, UniProt P22223 108-654); experiment: as above
T2 construct: Bought protein; also called CDH3; Fc part of the bought chimera not given

[3] = target: T3, rHuman CD44/Fc Chimera, CF (R&D Systems Cat#3660-CD) (human, UniProt P16070 21-220); experiment: as above
T3 construct: Bought protein; Fc part of the bought chimera not given

[4] = target: T4, Recombinant Human DLL4 (R&D Systems Cat#1506-D4/CF) (human, UniProt Q9NR61 27-524); experiment: as above
T4 construct: Bought protein; also called rHuman DLL4; delta-like protein 4

[5] = target: T1, rHuman IGF-1 sR (IGF-1 sR), CF (R&D …); experiment: ECL (MSD multi-spot), antigen spotted on plate; Fab 10 nM; blank 427
[6] = target: T2, rHuman P-Cadherin/Fc Chimera, CF (R&D …); experiment: as above
[7] = target: T3, rHuman CD44/Fc Chimera, CF (R&D Systems …); experiment: as above
[8] = target: T4, Recombinant Human DLL4 (R&D Systems …); experiment: as above
[9] = target: T1, rHuman IGF-1 sR (IGF-1 sR), CF (R&D …); experiment: ECL (MSD multi-spot), antigen spotted on plate; Fab 40 nM; blank 1229
[10] = target: T5, rHuman EGF R/Fc Chimera, CF (R&D Systems Cat#344-ER) (human, UniProt P00533 25-645); experiment: as above
T5 construct: Bought protein; also called epidermal growth factor receptor; Fc part of the bought chimera not given

[11] = target: T4, Recombinant Human DLL4 (R&D Systems …); experiment: as above
[12] = target: T6, rHuman HGF R/c-MET/Fc Chimera, CF (R&D Systems Cat#358-MT/CF) (human, UniProt P08581 25-932); experiment: as above
T6 construct: Bought protein; also called HGF R/Fc; hepatocyte growth factor receptor; Fc part of the bought chimera not given

[13] = target: T1, rHuman IGF-1 sR (IGF-1 sR), CF (R&D …); experiment: ECL (MSD multi-spot), antigen spotted on plate; Fab 200 nM; blank 1659
[14] = target: T5, rHuman EGF R/Fc Chimera, CF (R&D …); experiment: as above
[15] = target: T4, Recombinant Human DLL4 (R&D Systems …); experiment: as above
[16] = target: T6, rHuman HGF R/c-MET/Fc Chimera, CF (R&D …); experiment: as above
[17] = target: T1, rHuman IGF-1 sR (IGF-1 sR), CF (R&D …); experiment: ECL (MSD multi-spot), antigen spotted on plate; Fab 1000 nM; blank 2142
[18] = target: T5, rHuman EGF R/Fc Chimera, CF (R&D …); experiment: as above
[19] = target: T4, Recombinant Human DLL4 (R&D Systems …); experiment: as above
[20] = target: T6, rHuman HGF R/c-MET/Fc Chimera, CF (R&D …); experiment: as above
[21] = target: T1, rHuman IGF-1 sR (IGF-1 sR), CF (R&D …); experiment: ECL (MSD multi-spot), antigen spotted on plate; Fab 8 nM; blank 1188
[22] = target: T5, rHuman EGF R/Fc Chimera, CF (R&D …); experiment: as above
[23] = target: T4, Recombinant Human DLL4 (R&D Systems …); experiment: as above
[24] = target: T6, rHuman HGF R/c-MET/Fc Chimera, CF (R&D …); experiment: as above
[25] = target: T1, rHuman IGF-1 sR (IGF-1 sR), CF (R&D …); experiment: ECL (MSD multi-spot), antigen spotted on plate; Fab 1.6 nM; blank 648
[26] = target: T5, rHuman EGF R/Fc Chimera, CF (R&D …); experiment: as above
[27] = target: T4, Recombinant Human DLL4 (R&D Systems …); experiment: as above
[28] = target: T6, rHuman HGF R/c-MET/Fc Chimera, CF (R&D …); experiment: as above
[29] = target: T1, rHuman IGF-1 sR (IGF-1 sR), CF (R&D …); experiment: ECL (MSD multi-spot), antigen spotted on plate; Fab 0.32 nM; blank 428
[30] = target: T5, rHuman EGF R/Fc Chimera, CF (R&D …); experiment: as above
[31] = target: T4, Recombinant Human DLL4 (R&D Systems …); experiment: as above
[32] = target: T6, rHuman HGF R/c-MET/Fc Chimera, CF (R&D …); experiment: as above
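Also: blank spot per well as comparator with Hit at signal to blank ratio of 4 or more.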

- ECL signal [1]: 3990
- ECL signal [2]: 3430
- ECL signal [3]: 3380
- ECL signal [4]: 29800
- ECL signal [5]: 1120
- ECL signal [6]: 705
- ECL signal [7]: 841
- ECL signal [8]: 5230
B1: Fab VH5-51_IGHD5-18*01>3_IGHJ4*01_G104T & V3-4_IGLJ1*01 (Fab, V domains shown)
VH: EVQLVQSGAEVKKPGESLKISCKGSGYSFTSYWIGWVRQMPGKGLEWMGIIYPGDSDTRYSPSFQGQVTISADKSISTAYLQWSSLKASDTAMYYCARRGYSYTYDYFDYWGQGTLVTVSS
VL: QTVVTQEPSFSVSPGGTVTLTCGLSSGSVSTSYYPSWYQQTPGQAPRTLIYSTNTRSSGVPDRFSGSILGNKAALTITGAQADDESDYYCVLYMGSGISYVFGTGTKVTVL
notes: Expressed in E. coli as a Fab; CH1 with Flag and His tags comes from Plasmid A and the lambda CL from Plasmid E; also called IGHV5-51*03; IGHJ4*01 G104T with IGLV8-61*01

- ECL signal [9]: 1900
- ECL signal [10]: 1840
- ECL signal [11]: 13600
- ECL signal [12]: 1540
- ECL signal [13]: 2600
- ECL signal [14]: 2950
- ECL signal [15]: 14800
- ECL signal [16]: 2440
- ECL signal [17]: 3350
- ECL signal [18]: 3480
- ECL signal [19]: 14300
- ECL signal [20]: 3530
- ECL signal [21]: 1290
- ECL signal [22]: 1300
- ECL signal [23]: 9330
- ECL signal [24]: 1300
- ECL signal [25]: 815
- ECL signal [26]: 862
- ECL signal [27]: 2130
- ECL signal [28]: 830
- ECL signal [29]: 611
- ECL signal [30]: 660
- ECL signal [31]: 646
- ECL signal [32]: 574
B2: Fab VH1-46_IGHD6-6*01_IGHJ1*01_S104A & L6_IGKJ1*01 (Fab, V domains shown)
VH: QVQLVQSGAEVKKPGASVKVSCKASGYTFTSYYMHWVRQAPGQGLEWMGIINPSGGSTSYAQKFQGRVTMTRDTSTSTVYMELSSLRSEDTAVYYCAREEYSSASAEYFQHWGQGTLVTVSS
VL: not shown
notes: Expressed in E. coli as a Fab; CH1 with Flag and His tags comes from Plasmid A and the kappa CL from Plasmid C; also called IGHV1-46*01; IGHJ1*01 S104A with IGKV3-11*01
